# According to the supplement of paper PMC9170038:
# Test system: MS2 coat protein
# Assay: apparent KD of MS2 coat protein; designed switch direction (-1 OFF switch, 1 ON switch): -1; higher = weaker reporter binding
# Outline: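 The buffer was Tris-HCl pH 7.5 with KCl, MgCl2, BSA, DTT, tRNA and Tween-20. In it, SNAP-549-labelled MS2 coat protein was titrated in doubling steps from 0.7 or 1.5 nM to 3 µM over chip-bound RNA switches transcribed by stalled E. coli RNA polymerase on Illumina chips. Apparent KD is the per-design median over clusters of curve fits to normalised fluorescence.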
# [1] = Eterna round: R95, input ligand: FMN 200 uM
# [2] = Eterna round: R95, input ligand: microRNA oligo, concentration not stated
# [3] = Eterna round: R95, input ligand: none
# [4] = input ligand: microRNA oligo, concentration not stated
Sequence,apparent KD of MS2 coat protein [1] [nM],apparent KD of MS2 coat protein [2] [nM],apparent KD of MS2 coat protein [3] [nM],apparent KD of MS2 coat protein (input ligand: FMN 200 uM) [nM],apparent KD of MS2 coat protein [4] [nM],apparent KD of MS2 coat protein (input ligand: none) [nM]
AAAAAACAAGGAUAUACUAAAAAAAAAUGUGUUAAUUUUUCACAUGAGGAUCACCCAUGUAGAAGGUGUUAAAA [JR_Exclusion2_Sub006] (puzzle: Exclusion 2),54.7,79,93.6,,,
AAAAACAGAGGAUAUGCACGCCGACCCGGGCGGGAAGUCGGACAUGAGGAUCACCCAUGUAGAAGGCUGAAAAA [Exclss2-VI] (puzzle: Exclusion 2),13.3,10.5,11.5,,,
AAAAAGCGAGGAUAUGCGGGCGGGUGCGGCCAGCCGAUGUGACAUGAGGAUCACCCAUGUAGAAGGCGCAAAAA [Excls2-VII] (puzzle: Exclusion 2),,12.3,,,,
"AAAAAUUACAUGAGGAUCACCCAUGUAGAGUGGGAAGAGAGAUAGGAUAUGAUGUGAGAAUCAUAUCAGAAGGAUCGAGACUCA [AK ExNG3-2.1] (Eterna round: R96, puzzle: Exclusion NG 3)",,,,129,126,119
"AAAACAAACGAAGGAUAUGCGCGAAAAUGACUAGCAGAAGGUCGACACGGGCGGAUCCGACAUGAGGAUCACCCAUGUAAAACU [Tied] (Eterna round: R96, puzzle: Exclusion NG 1)",,,,1200,389,490
"AAAACACAUGAGGAUCACCCAUGUGAGGAUAUGCUAUGGAAAAUAAAAAUAAAACAUAGCAGAAGGCACAAAGG [Denovo 18] (Eterna round: R96, puzzle: Exclusion 1)",,,,,54,
AAAACCUCUGUCAGGAUAUCCAUGCGUCCAAAAGCGGAGAAGGGACAUGAGGAUCACCCAUGUUAGCAAAAUCA [Ceenxequ] (puzzle: Brourd's mod of Exclusion 4),119,34.9,38.5,,,
"AAAACGUGAGGAUAUCCAAUAUAUGACAUGAGGAUCACCCAUGUUUCCACUCGUACCUCCGGAGAAGGCACAUUUU [Ex5 #79] (Eterna round: R97, puzzle: Exclusion 5)",,,,62.7,,67
"AAAACUCACGUAGGAUAUCAUUCCUUAAGGUAGUGAGAAGGACGUGACUACAUGUCCUAAAACAUGAGGAUCACCCAUGUAGGC [Riis] (Eterna round: R96, puzzle: Exclusion NG 1)",,,,,24.2,
AAAAGGCUAGGAUAUACAUGAGGAUCACCCAUGUGAGGGCACGGCCGGCGCGGGCCCGGUAGAAGGAGUCAAAA [Exc;s3-IX] (puzzle: Exclusion 3),,13.4,,,,
AAAAGGUGAGGAUAUACAAUGAUCCUCAUAAUAACCCGAAGACAUGAGGAUCACCCAUGUAGAAGGCACAAAUA [Istive] (puzzle: Exclusion 2),33.4,16.5,19.8,,,
AAAAGUUUGGAGGAUAUCCAUCCAAACGGAUAAGGAGAAGGCCGGACAUGAGGAUCACCCAUGUGAUUAGGUUA [Isradiri] (puzzle: Exclusion 6),,13.4,,,,
"AAAAUAAAAGCAGGAUAUCGACCUCCCAAGUGGCGAGAAGGGCUAGACGGGCGGUCUAACAUGAGGAUCACCCAUGUCAACAAA [Soorante] (Eterna round: R96, puzzle: Exclusion NG 1)",,,,93.4,23.5,34.7
"AAAAUACAUGAGGAUCACCCAUGUGAGGAUAUGAGAGUCAACUCGAGAGAGUUGAUUCUCAGAAGGCACAUAAA [JR_Ex1_Sub066] (Eterna round: R97, puzzle: Exclusion 1)",,,,228,,53.7
"AAACAACGGACAGGAUAUCCGAAAAUAAAGCUAGGAGAAGGGUCGAAAACAUGAGGAUCACCCAUGUGCGUGGCGGGUUCUUAG [Zaerqu] (Eterna round: R96, puzzle: Exclusion NG 1)",,,,25.6,13.4,21.2
"AAACAAGCUCGGGUGAGGGAGACCACAGAAGGACCCAAAACAUGAGGAUCACCCAUGUCAAGAGUAGAGCUUGGCAU [high scoring solution 31] (Eterna round: R96, puzzle: Sensor v2, turn-off variant 2)",,,,71,57.4,75.4
"AAACCGCAAGGAUAUACUUGCGGUGGUGUUCGAAACUUUCUACUUGAGGAUCACCCAAGUAGAAGGUGCGGUAA [jl-ex2.4.71 ViennaUCT mod] (Eterna round: R97, puzzle: Exclusion 2)",,,,13.2,,12.9
"AAACCUGCCCAUGACCGCAAGCUUUUCGCUUGUCUUACCACAUGAGGAUCACCCAUGUGACAUGGGCUCCUUAUAAA [Usorle] (puzzle: Sensor v3, turn-off variant 2)",14,11.8,11.4,,,
"AAACGGCAGGGAGGAUAUGCUUACCUGGGUCGUCUUCAGACAUGAGGAUCACCCAUGUAGUCGACGCAGAAGGCCCUCAAAGCC [JL ViennaUCT Ontiis mod 3] (Eterna round: R96, puzzle: Exclusion NG 2)",,,,413,38.7,51.1
"AAACGGGUGUCCUCGUUUUCAACAUGAGGAUCACCCAUGUUCGAGGAUAUCCAAUAAGCUCUUCAGGAGAAGGCGAACAUAAAA [Anenence] (Eterna round: R96, puzzle: Exclusion NG 3)",,,,20.1,13.3,15.7
AAACUGUGAGGAUAUGGUGAGUAGUGCCUGAGCGCUGCUCACCAGAAGGCACAUGAGGAUCACCCAUGUAUAAA [Mat - Exclusion 4 - Mod of JL - D6] (puzzle: Exclusion 4),,24.2,,,,
AAAGAACAUGAGGAUCACCCAUGUAAGGAUAUCCAAAAGAAGGAAAGAAAGAAAAGAAGGAGAAGGUACAAGAA [JR_Exclu1_Sub041] (puzzle: Exclusion 1),33.5,60.7,84.5,,,
"AAAGCCAAGCGAGGAUAUGCGAUAGUUGAUCUUCGUGAGGACAUGAGGAUCACCCAUGUGCUGCAGCAGAAGGCGCAGGUAAAG [Anramaqu] (Eterna round: R96, puzzle: Exclusion NG 2)",,,,754,140,318
AAAGCGUGAGGAUAUGAGGCGCCGGGCCGGUUGGUGCGGAUUCAGAAGGCACAUGAGGAUCACCCAUGUAGGAA [Excls4-III] (puzzle: Exclusion 4),,22.9,,,,
"AAAGGAUGCCUAGGAUAUUGACUAAGAAAGGAUUAAGAAGGAGGAAAUAUAUGAGGGAUCCACAUGAGGAUCACCCAUGUACAC [Xesousbege] (Eterna round: R96, puzzle: Exclusion NG 1)",,,,769,315,607
"AAAUAAAGCCUAGGAUAUCCGGACGAUAACCCAGGAGAAGGAGGAUGUCGAAGAAGACAUGAGGAUCACCCAUGUGCGUCCUCU [Ancegege] (Eterna round: R96, puzzle: Exclusion NG 1)",,,,10.3,10.6,15.4
